Measured values published in article PMC2784912 (Biochemistry, 2008).

Columns and labels:
[1] = system: MDA-MB-231 cancer cell line; test: Apoptosis by annexin V/propodium iodide flow cytometry; format: cell-based, human; conditions: MDA-MB-231, 24 h, annexin V/PI
[2] = target: XIAP linker–BIR2–BIR3 protein (residues 120–356) (human) (UniProt P98170); test: fluorescence polarisation
[3] = target: XIAP BIR2-only protein (residues 120–240) (human) (UniProt P98170); test: fluorescence polarisation
[4] = target: XIAP BIR3-only protein (residues 241–356) (human) (UniProt P98170); test: fluorescence polarisation

| Ki [2] | Ki [3] | Ki [4] | Molecule | induction of apoptosis [1] |
| --- | --- | --- | --- | --- |
| – | – | – | COC(=O)CC[C@H](NC(=O)[C@H](CC(=O)OC)NC(=O)OCc1ccccc1)C(=O)N[C@H](C(=O)N[C@@H](CC(=O)OC)C(=O)CF)C(C)C [Z-DEVD-FMK] | no effect on cells |
| 900 nM | 11700 nM | 86 nM | compound 2 (monovalent Smac mimetic, N-methyl-AKPF) (peptide) | – |
